Results from patent US20220033483A1 (GUAGNDONG FEIPENG BIOLOGICAL, published 2022).
Where a chain is given by its changes, count along the chain named.

B1: WT 1-4 (antibody, V domains shown)
VH: QVQLQQSGTELAKPGASVKFSCKASDYTFSTYWMYWIKQRPGQGLEWIGYINPSSGHTEYNQRFKDKATLTADKSSSTAYMQLNSLTSEDSAVYYCARKYYGPFAMDYWGQGTSVTVSS
VL: EIFLTQSPAIMSASPGEKVTMTCSASTTVSYAHWYQQKSGTSPKRWLYDSSKIASGIPVRFSGSGSGTSYSLTISSMEAEDAATYYCQNWSTNPYTFGGGTKLEIKR
B2: Mutation 1-26 (antibody, V domains shown)
VH: B1 VH with D26G, S30T, I51L, S55T, E59D, R63K, K99R, Y101W, A105G
VL: B1 VL with T27S, A32V, S50T, I53L, N89Q, T92S
B3: Mutation 1-13 (antibody, V domains shown)
VH: B1 VH with D26G, T31S, I51L, E59D, K99R, A105G
VL: B1 VL with T27S, T28S, A32V, L47I, S50T, N89Q, N93Q
B4: Mutation 1-17 (antibody, V domains shown)
VH: B1 VH with D26G, T31S, S55T, E59D, Y101W, A105G
VL: B1 VL with T27S, T28S, A32V, L47I, S50T, N89Q, T92S, N93Q
B5: Mutation 1-21 (antibody, V domains shown)
VH: B1 VH with D26G, T31S, I51L, S55T, E59D, Y101F, A105G
VL: B1 VL with T28S, A32V, L47I, S50T, N89Q, T92S, N93Q
B6: Mutation 1-14 (antibody, V domains shown)
VH: B1 VH with D26G, S30T, T31S, I51L, S55T, E59D, R63K, K99R, Y101W, A105G
VL: B1 VL with T27S, A32V, S50T, I53L, N89Q, N93Q
B7: Mutation 1-15 (antibody, V domains shown)
VH: B1 VH with D26G, S30T, I51L, E59D, Y101F, A105G
VL: B1 VL with T28S, A32V, L47I, S50T, I53L, N89Q, N93Q
notes: CDR-VL3 cell prints 'TQ', read as T/Q
B8: Mutation 1-23 (antibody, V domains shown)
VH: B1 VH with D26G, S30T, T31S, S55T, E59D, Y101W, A105G
VL: B1 VL with T27S, T28S, A32V, L47I, S50T, I53L, N89Q, T92S
B9: Mutation 1-19 (antibody, V domains shown)
VH: B1 VH with D26G, S30T, T31S, I51L, S55T, E59D, R63K, K99R, A105G
VL: B1 VL with T27S, T28S, A32V, L47I, S50T, I53L, N89Q, T92S, N93Q
B10: Mutation 1-20 (antibody, V domains shown)
VH: B1 VH with D26G, I51L, E59D, R63K, K99R, Y101W, A105G
VL: B1 VL with T27S, A32V, S50T, N89Q, T92S, N93Q
B11: Mutation 1-1 (antibody, V domains shown)
VH: B1 VH with D26G, S55T, E59D, R63K, K99R, A105G
VL: B1 VL with T27S, T28S, A32V, L47I, S50T, N89Q
B12: WT 1-3 (antibody, V domains shown)
VH: B1 VH with S30T, S55T, R63K, Y101F
VL: B1 VL with T28S, L47I, I53L, T92S
B13: Mutation 1-4 (antibody, V domains shown)
VH: B1 VH with D26G, E59D, A105G
VL: B1 VL with A32V, S50T, N89Q
B14: Mutation 1-53 (antibody, V domains shown)
VH: B1 VH with D26G, T31S, S55T, E59D, A105G
VL: B1 VL with A32V, L47I, S50T, I53L, N89Q
B15: Mutation 1-9 (antibody, V domains shown)
VH: B1 VH with D26G, T31S, E59D, Y101F, A105G
VL: B1 VL with T27S, T28S, A32V, L47I, S50T, N89Q, N93Q
B16: Mutation 1-40 (antibody, V domains shown)
VH: B1 VH with D26G, I51L, E59D, K99R, Y101F, A105G
VL: B1 VL with T27S, A32V, S50T, N89Q
B17: Mutation 1-32 (antibody, V domains shown)
VH: B1 VH with D26G, I51L, E59D, Y101W, A105G
VL: B1 VL with T27S, A32V, S50T, N89Q, T92S
B18: Mutation 1-55 (antibody, V domains shown)
VH: B1 VH with D26G, I51L, E59D, R63K, A105G
VL: B1 VL with A32V, L47I, S50T, I53L, N89Q
notes: T0002 combination 56 prints L/L
B19: WT 1-6 (antibody, V domains shown)
VH: B1 VH with S30T, T31S, I51L, K99R, Y101F
VL: B1 VL with T27S, I53L
B20: WT 1-8 (antibody, V domains shown)
VH: B1 VH with S55T, R63K, K99R, Y101W
VL: B1 VL with N93Q
B21: Mutation 1-8 (antibody, V domains shown)
VH: B1 VH with D26G, S55T, E59D, R63K, K99R, Y101W, A105G
VL: B1 VL with A32V, S50T, N89Q, N93Q
B22: Mutation 1-44 (antibody, V domains shown)
VH: B1 VH with D26G, E59D, A105G
VL: B1 VL with T27S, T28S, A32V, L47I, S50T, N89Q
B23: Mutation 1-24 (antibody, V domains shown)
VH: B1 VH with D26G, S55T, E59D, R63K, K99R, Y101F, A105G
VL: B1 VL with T27S, A32V, S50T, N89Q, T92S
B24: Mutation 1-34 (antibody, V domains shown)
VH: B1 VH with D26G, S30T, T31S, E59D, R63K, A105G
VL: B1 VL with A32V, S50T, I53L, N89Q, T92S
B25: Mutation 1-10 (antibody, V domains shown)
VH: B1 VH with D26G, S30T, T31S, S55T, E59D, A105G
VL: B1 VL with T27S, A32V, S50T, I53L, N89Q, N93Q
B26: WT 1-2 (antibody, V domains shown)
VH: B1 VH with S30T, T31S, K99R, Y101W
VL: B1 VL with T27S, I53L, T92S, N93Q
B27: Mutation 1-28 (antibody, V domains shown)
VH: B1 VH with D26G, I51L, S55T, E59D, A105G
VL: B1 VL with A32V, S50T, N89Q, T92S
B28: Mutation 1-16 (antibody, V domains shown)
VH: B1 VH with D26G, E59D, R63K, A105G
VL: B1 VL with A32V, S50T, N89Q, N93Q
B29: WT 1-5 (antibody, V domains shown)
VH: B1 VH with T31S, I51L, S55T, R63K, Y101W
VL: B1 VL with T27S, T28S, L47I
B30: WT 1-1 (antibody, V domains shown)
VH: B1 VH with S55T, R63K, K99R
VL: B1 VL with T27S, T28S, L47I
B31: Mutation 1-18 (antibody, V domains shown)
VH: B1 VH with D26G, S30T, E59D, K99R, Y101F, A105G
VL: B1 VL with A32V, S50T, I53L, N89Q, T92S, N93Q
B32: Mutation 1-12 (antibody, V domains shown)
VH: B1 VH with D26G, I51L, S55T, E59D, K99R, Y101F, A105G
VL: B1 VL with A32V, S50T, N89Q, N93Q
B33: Mutation 1-36 (antibody, V domains shown)
VH: B1 VH with D26G, E59D, K99R, Y101W, A105G
VL: B1 VL with T27S, A32V, S50T, N89Q
B34: Mutation 1-54 (antibody, V domains shown)
VH: B1 VH with D26G, T31S, I51L, E59D, R63K, K99R, Y101F, A105G
VL: B1 VL with A32V, S50T, N89Q, N93Q
B35: WT 1-7 (antibody, V domains shown)
VH: B1 VH with S30T, I51L, S55T, R63K, K99R
VL: B1 VL with T28S, L47I, I53L
B36: Mutation 1-22 (antibody, V domains shown)
VH: B1 VH with D26G, S30T, I51L, E59D, R63K, A105G
VL: B1 VL with A32V, S50T, I53L, N89Q, T92S, N93Q
B37: Mutation 1-47 (antibody, V domains shown)
VH: B1 VH with D26G, S30T, I51L, S55T, E59D, R63K, K99R, A105G
VL: B1 VL with A32V, S50T, N89Q, N93Q
B38: Mutation 1-25 (antibody, V domains shown)
VH: B1 VH with D26G, T31S, E59D, K99R, A105G
VL: B1 VL with T28S, A32V, L47I, S50T, N89Q, T92S

target: T1, cTnI quality control product recombinant protein (human, UniProt P19429 1-210, limits assumed); assay: AMC biosensor, antibody on sensor
T1 construct: the assay paragraphs only say cTnI; also called cardiac troponin I; cTnI antigen
T1 sequence (P19429 whole entry): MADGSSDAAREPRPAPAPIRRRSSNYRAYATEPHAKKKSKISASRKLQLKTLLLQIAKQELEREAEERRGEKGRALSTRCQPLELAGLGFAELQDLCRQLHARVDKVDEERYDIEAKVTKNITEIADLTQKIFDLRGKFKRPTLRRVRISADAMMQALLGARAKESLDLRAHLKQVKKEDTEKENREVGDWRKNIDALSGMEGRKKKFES
Protocol: Operating process: it is equilibrated in Buffer 1 (PBST) for 60 s, the antibody is immobilized in an antibody solution for 300 s, incubated in Buffer 2 (PBST) for 180 s, bound in antigen solution for 420 s, dissociated in the Buffer 2 for 1200 s, 10 mM of GLY solution with pH 1.69 and Buffer 3 are used for sensor regeneration, and data is output.

Binder	Kd [nM]	koff [s⁻¹]	kon [M⁻¹ s⁻¹]
B1	31.8	0.000922	29000
B2	2.08	3.31e-05	15900
B3	4.42	7.82e-05	17700
B4	2.98	9.97e-05	33500
B5	9.92	0.000262	26100
B6	7.84	0.000217	27700
B7	1.16	2.1e-05	18100
B8	1.76	2.04e-05	11600
B9	6.54	7.12e-05	10900
B10	1.38	2.3e-05	16600
B11	7.73	0.000118	15300
B12	10.8	0.000372	34400
B13	5.72	0.000211	36900
B14	8	0.0004	50000
B15	0.813	2.45e-05	30100
B16	4.16	0.000138	33200
B17	0.548	1.78e-05	32400
B18	2.07	6.36e-05	30700
B19	51.5	0.00131	25500

Binder	Kd [nM]	koff [s⁻¹]	kon [M⁻¹ s⁻¹]
B20	75.1	0.00221	29400
B21	9.35	0.000105	11200
B22	4.18	6.9e-05	16500
B23	9.29	0.000173	18600
B24	0.404	1.92e-05	–
B25	4.19	0.000155	37000
B26	28.5	0.000741	26000
B27	0.941	1.39e-05	14800
B28	1.39	6.64e-05	47700
B29	48.6	0.0017	35000
B30	68.4	0.00165	24100
B31	2.3	8.41e-05	36500
B32	3.29	6.88e-05	20900
B33	5.49	9.5e-05	17300
B34	1.63	7.3e-05	44900
B35	28.6	0.000795	27800
B36	1.73	8.25e-05	47800
B37	2.03	6.94e-05	34100
B38	1.7	6.15e-05	36200
